Data set [1] concerns T1, substrate a, Mca-Gly-Ser-Pro-Ala-Phe**Leu-Ala-Lys(Dnp)-DArg-CONH2.
T1 sequence: GSPAFLAKR

Data set [2] concerns T2, substrate b, Mca-Gly-Pro-Ile-Leu-Phe**Phe-Arg-Leu-Gly-Lys(Dnp)-DArg-CONH2.
T2 sequence: GPILFFRLGKR

Data set [3] relates to T3, substrate c, Mca-Gly-Pro-Ile-Leu-Phe**Phe-Arg-Leu-Lys(Dnp)-DArg-CONH2.
T3 sequence: GPILFFRLKR

For data set [4], the system named is T4, substrate d, Mca-Ala-Gly-Phe-Ser-Leu**Gly-Pro-Lys(Dnp)-DArg-CONH2.
T4 sequence: AGFSLGPKR

Data set [5] relates to T5, substrate e, Mca-Ala-Gly-Phe-Ser-Leu**Pro-Ala-Lys(Dnp)-D-Arg-CONH2.
T5 sequence: AGFSLPAKR

Experimental findings from patent US20130251640 are described below.

For “Cathepsin D (purchased from Calbiochem, EMD Bioscience)”, the “fluorescence intensity on hydrolysis (FRET substrate)” value (“fluorescence intensity on hydrolysis” below) was “such leading increase in fluorescence signal with Cath E was observed as well upon incubation with Cath D” in data set [1]; “Compared to substrate b, substrate c shows superior increase in the fluorescence intensity upon hydrolysis by both Cath E and Cath D” in data set [2]; “Compared to substrate b, substrate c shows superior increase in the fluorescence intensity upon hydrolysis by both Cath E and Cath D” in data set [3]; “both substrates d and e exhibited similar slow hydrolysis by Cath D” in data set [4]; “both substrates d and e exhibited similar slow hydrolysis by Cath D” in data set [5]. Besides, the Kcat/Km result in data set [5] is listed as “NM^a”.

By Km is commonly meant the substrate concentration at which the rate is half of its maximum. On to “Cathepsin E (purchased from Calbiochem, EMD Bioscience)”, for which the “fluorescence intensity on hydrolysis” value in data set [1] is “A prominent fluorescence increase of substrate a was observed instantaneously upon incubation with Cath E”. In addition, the “fluorescence intensity on hydrolysis” value in data set [2] was “Compared to substrate b, substrate c shows superior increase in the fluorescence intensity upon hydrolysis by both Cath E and Cath D”. Moreover, the “fluorescence intensity on hydrolysis” value in data set [3] was “Compared to substrate b, substrate c shows superior increase in the fluorescence intensity upon hydrolysis by both Cath E and Cath D”. For the same substance, the “fluorescence intensity on hydrolysis” value in data set [4] was “substrate d showed relatively slow hydrolysis and did not reach saturation within the monitored period”. Further, in data set [5], the Kcat was found to be 322 S^-1, the Kcat/Km came out at 16.7, the Km amounted to 19.4 µM and the Vmax was 2.2 µM S^-1. For the same substance, the “fluorescence intensity on hydrolysis” value in data set [5] is “substrate e was activated by Cath E quickly and reached saturation within 10 minutes”.
